Patent US20250297255A1 (ARSENAL BIOSCIENCES, published 2025)

B1: TMPRSS4 Ab38 scFv (VH-VL) (scFv)
scFv: QVQLAQSGAEVKKPGASVKVSCKASGYTFTRHYIQWVRQAPGQGLEWMGWINPNSGNTGYAQKFQGRVTMTRDTSTSTVYMELSSLRSEDTAVYYCARGRQWLRGEYFQHWGQGTLVTVSSGGGGSGGGGSGGGGSDIQMTQSPSSLSASVGDRVTITCQASQDISRYLNWYQQKPGKAPKLLIYGASNLLSGVPSRFSGSGSGTDFTLTISSLQPEDFATYYCQQTHTTPYTFGQGTRLEIK
notes: on monoclonal phage in the screen
B2: TMPRSS4 Ab42 scFv (VH-VL) (scFv)
scFv: QVQLVQSGAEVKKPGASVKVSCKASGYSFTSHYMHWVRQAPGQGLEWMGWMNPNSGNTGYAQKFQGRVTMTRDTSTSTVYMELSSLRSEDTAVYYCARLGQQLDYWGQGTLVTVSSGGGGSGGGGSGGGGSDIQMTQSPSSLSASVGDRVTITCRASQSIRNYLNWYQQKPGKAPKLLIYEASRLQSGVPSRFSGSGSGTDFTLTISSLQPEDFATYYCQQSYSAPPTFGPGTKVDIK
notes: as for B1
B3: TMPRSS4 Ab44 scFv (VH-VL) (scFv)
scFv: QVQLVQSGAEVKKPGASVKVSCKASGYTFRNYYIHWVRQAPGQGLEWMGRINPNSGGTNYAQKFQGRVTMTRDTSTSTVYMELSSLRSEDTAVYYCARARIAVAVSGFGYWGQGTLVTVSSGGGGSGGGGSGGGGSDIQMTQSPSSLSASVGDRVTITCQASQDISNYLNWYQQKPGKAPKLLIYAASSLHSGVPSRFSGSGSGTDFTLTISSLQPEDFATYYCQESSSFPYTFGPGTKVDIK
notes: as for B1
B4: TMPRSS4 Ab40 scFv (VH-VL) (scFv)
scFv: QVQLVQSGAEVKKPGASVKVSCKASGGTFSSYAISWVRQAPGQGLEWMGIINPRGGSTNYAQKFQGRVTMTRDTSTSTVYMELSSLRSEDTAVYYCAREGSSWYYDAFDIWGQGTMVTVSSGGGGSGGGGSGGGGSDIQMTQSPSSLSASVGDRVTITCRASQSISSYLNWYQQKPGKAPKLLIYAAYNLQSGVPSRFSGSGSGTDFTLTISSLQPEDFATYYCQQSYSIPFTFGGGTKVEIK
notes: as for B1
B5: TMPRSS4 Ab43 scFv (VH-VL) (scFv)
scFv: QVQLVQSGAEVKKPGASVKVSCKASGYTFIGYYMHWVRQAPGQGLEWMGRINPNSGETNYAQKFQGRVTMTRDTSTSTVYMELSSLRSEDTAVYYCARVRVRGVIHPGFDPWGQGTLVTVSSGGGGSGGGGSGGGGSDIQMTQSPSSLSASVGDRVTITCQASQDISNYLNWYQQKPGKAPKLLIYAASSLQSGVPSRFSGSGSGTDFTLTISSLQPEDFATYYCQQSYSTPVTFGPGTKVDIK
notes: as for B1
B6: TMPRSS4 Ab33 scFv (VH-VL) (scFv)
scFv: QVQLVQSGAEVKKPGASVKVSCKASGYTFSNYYMHWVRQAPGQGLEWVGWMNPKSGNTGYAQKFQGRVTMTRDTSTSTVYMELSSLRSEDTAVYYCARGRTWIQSSLGYWGQGTLVTVSSGGGGSGGGGSGGGGSDIQMTQSPSSLSASVGDRVTITCRASQYISRWLAWYQQKPGKAPKLLIYGSSTLQSGVPSRFSGSGSGTDFTLTISSLQPEDFATYYCQQYYSTPFTFGPGTKLEIK
notes: as for B1
B7: TMPRSS4 Ab3 scFv (VH-VL) (scFv)
scFv: QVQLVQSGAEVKKPGSSVKVSCKASGYTFTSYDINWVRQAPGQGLEWMGGIIPIFGTTKFAQKFQGRVTITADESTSTAYMELSSLRSEDTAVYYCARDWYSSSWYNGDRGDWFDPWGQGTLVTVSSGGGGSGGGGSGGGGSDIVMTQSPLSLPVTPGEPASISCRSSGSLLHSNGYNYLDWYLQKPGQSPQLLIYAASSLQSGVPDRFSGSGSGTDFTLKISRVEAEDVGVYYCMQGTHWPGTFGQGTKVEIK
notes: as for B1
B8: TMPRSS4 Ab45 scFv (VH-VL) (scFv)
scFv: QVQLVQSGAEVKKPGASVKVSCKASGYTFSRWYMHWVRQAPGQGLEWMGRINPNSGGTNYAQKFQGRVTMTRDTSTSTVYMELSSLRSEDTAVYYCARVGGYGWFDPWGQGTLVTVSSGGGGSGGGGSGGGGSDIQMTQSPSSLSASVGDRVTITCQATQDIRNYLNWYQQKPGKAPKLLIYATSSLQSGVPSRFSGSGSGTDFTLTISSLQPEDFATYYCQQSYSPPYTFGQGTKLEIK
notes: as for B1
B9: TMPRSS4 Ab37 scFv (VH-VL) (scFv)
scFv: EVQLLESGGGLVQPGGSLRLSCAASGFTFSSYAMHWVRQAPGKGLEWVSYISSSGSTVYYADSVKGRFTISRDNSKNTLYLQMNSLRAEDTAVYYCARVSNVTPRSGFGYWGQGTLVTVSSGGGGSGGGGSGGGGSDIQMTQSPSSLSASVGDRVTITCRASQSISRYLNWYQQKPGKAPKLLIYSASTLQSGVPSRFSGSGSGTDFTLTISSLQPEDFATYYCQQAHSFPPSFGQGTKLEIK
notes: as for B1
B10: TMPRSS4 Ab34 scFv (VH-VL) (scFv)
scFv: QVQLVQSGAEVKKPGASVKVSCKASGYTFTGYYIHWVRQAPGQGLEWMGWMNPHSGNTGYAQKFQGRVTMTRDTSTSTVYMELSSLRSEDTAVYYCAREGGRYSSGRLGYWGQGTLVTVSSGGGGSGGGGSGGGGSDIQMTQSPSSLSASVGDRVTITCRASQGISSWLAWYQQKPGKAPKLLIYAASTLQTGVPSRFSGSGSGTDFTLTISSLQPEDFATYYCQQSKSIPITFGGGTKVEIK
notes: as for B1
B11: TMPRSS4 Ab41 scFv (VH-VL) (scFv)
scFv: QVQLVQSGAEVKKPGASVKVSCKASGGTFSSYAISWVRQAPGQGLEWMGWMNPNSGDTHYAQKFQGRVTMTRDTSTSTVYMELSSLRSEDTAVYYCAREGSSWYYDAFDIWGQGTLVTVSSGGGGSGGGGSGGGGSDIQMTQSPSSLSASVGDRVTITCRASQSISRWLAWYQQKPGKAPKLLIYAASTLQTGVPSRFSGSGSGTDFTLTISSLQPEDFATYYCLQHSSYPFTFGQGTKVEIK
notes: as for B1
B12: TMPRSS4 Ab35 scFv (VH-VL) (scFv)
scFv: QVQLVQSGAEVKKPGASVKVSCKASGYTFTGYYMHWVRQAPGQGLEWMGKISAHSGETKYAQNVQGRVTMTRDTSTSTVYMELSSLRSEDTAVYYCARANYYGDYVNYYYGMDVWGQGTTVTVSSGGGGSGGGGSGGGGSDIQMTQSPSSLSASVGDRVTITCQASQDISNYLNWYQQKPGKAPKLLIYKASSLESGVPSRFSGSGSGTDFTLTISSLQPEDFATYYCQQTYTIPITFGQGTRLEIK
notes: as for B1
B13: TMPRSS4 Ab4 scFv (VH-VL) (scFv)
scFv: QVQLVQSGAEVKKPGASVKVSCKASGYFFTTYYLHWVRQAPGQGLEWMGVINPNSRLTSYAESFQGRVTMTRDTSTSTVYMELSSLRSEDTAVYYCEREMFPSSYGIDVWGQGTTVTVSSGGGGSGSGGGGSGGGGSDIVMTQSPLSLPVTPGEPASISCRSSQSLLHSNGYNYLDWYLQKPGQSPQLLIYAASTLQSGVPDRFSGSGSGTDFTLKISRVEAEDVGVYYCMQGTHWPPTFGQGTKLEIK
notes: as for B1
B14: TMPRSS4 Ab39 scFv (VH-VL) (scFv)
scFv: QVQLVQSGAEVKKPGASVKVSCKASGGSFSGYAVSWVRQAPGQGLEWLGVINPSDSWTAFAQKFQGRVTMTRDTSTSTVYMELSSLRSEDTAVYYCAREREDDAFDIWGQGTTVTVSSGGGGSGGGGSGGGGSDIQMTQSPSSLSASVGDRVTITCRASQGIRNWLAWYQQKPGKAPKLLIYRASTLQSGVPSRFSGSGSGTDFTLTISSLQPEDFATYYCQQSYTTPFTFGQGTKLEIK
notes: as for B1
B15: TMPRSS4 Ab28 scFv (VH-VL) (scFv)
scFv: QVQLVQSGAEVKKPGASVKVSCKASGYTFTGYYMHWVRQAPGQGLEWMGWMNPNSGNTGYAQKFQGRVTMTRDTSTSTVYMELSSLRSEDTAVYYCARLRAKGGGFDYWGQGTLVTVSSGGGGSGGGGSGGGGSDIQMTQSPSSLSASVGDRVTITCRASQGIGNYLAWYQQKPGKAPKLLIYAASSLESGVPSRFSGSGSGTDFTLTISSLQPEDFATYYCQQGYRFPPTFGPGTKVDIK
notes: as for B1
B16: TMPRSS4 Ab30 scFv (VH-VL) (scFv)
scFv: QVQLVQSGAEVKKPGASVKVSCKASGYTFTTYYMHWVRQAPGQGLEWMGWMNPNSGNTGYAQKFQGRVTMTRDTSTSTVYMELSSLRSEDTAVYYCARARTWLLSPFDYWGQGTLVTVSSGGGGSGGGGSGGGGSEIVMTQSPATLSVSPGERATLSCRASQSVGRYLAWYQQKPGQAPRLLIYGASTRATGIPARFSGSGSGTEFTLTISSLQSEDFAVYYCQHYDSSPMYTFGQGTKLEIK
notes: as for B1
B17: TMPRSS4 Ab48 scFv (VH-VL) (scFv)
scFv: QVQLVQSGAEVKKPGASVKVSCKASGYTFTGYYLHWVRQAPGQGLEWMGWISAYNGNTNYAQNLQGRVTMTRDTSTSTVYMELSSLRSEDTAVYYCARHSYSGSYSTLPYYGMDVWGQGTTVTVSSGGGGSGGGGSGGGGSDIQMTQSPSSLSASVGDRVTITCRASQGISNYLAWYQQKPGKAPKLLIYTASTLFPGVPSRFSGSGSGTDFTLTISSLQPEDFATYYCQQSYSIPLTFGGGTKVEIK
notes: as for B1
B18: TMPRSS4 Ab32 scFv (VH-VL) (scFv)
scFv: QVQLVQSGAEVKKPGSSVKVSCKASGGTFSSYAISWVRQAPGQGLEWMGRINPSGGSTSYAQKFQGRVTMTRDTSTSTVYMELSSLRSEDTAVYYCARGRYSSSSWGQGTLVTVSSGGGGSGGGGSGGGGSDIQMTQSPSSLSASVGDRVTITCRASQSISTYLNWYQQKPGKAPKLLIYAASSLQRGVPSRFSGSGSGTDFTLTISSLQPEDFATYYCQQSYTTPLTFGGGTKVEIK
notes: as for B1
B19: TMPRSS4 Ab31 scFv (VH-VL) (scFv)
scFv: QVQLVQSGAEVKKPGSSVKVSCKASGYTFRGSGISWVRQAPGQGLEWMGIIYPADSETRYSPSFQGRVTITADESTSTAYMELSSLRSEDTAVYYCARESSSWDYFDYWGQGTLVTVSSGGGGSGGGGSGGGGSEIVMTQSPATLSVSPGERATLSCRASQSVRSYLAWYQQKPGQAPRLLIYGASTRATGIPARFSGSGSGTEFTLTISSLQSEDFAVYYCQQHGSLPLTFGQGTKVEIK
notes: as for B1
B20: TMPRSS4 Ab36 scFv (VH-VL) (scFv)
scFv: EVQLLESGGGLVQPGGSLRLSCAASGFTFSSRAMSWVRQAPGKGLEWVSRINYDGSATTYADSVKGRFTISRDNSKNTLYLQMNSLRAEDTAVYYCARGITIFGVFDYWGQGTLVTVSSGGGGSGGGGSGGGGSDIQMTQSPSSLSASVGDRVTITCRASQSISTWLAWYQQKPGKAPKLLIYRASNLQSGVPSRFSGSGSGTDFTLTISSLQPEDFATYYCQQSYSTPLTFGGGTKVEIK
notes: as for B1

Molecular target: T1, Human TMPRSS4 (Transmembrane protease, serine 4), wild type full length (human, UniProt Q9NRS4 1-437)
T1 construct: Type II membrane protein over-expressed on HEK293T cells (also endogenous on H1975 and LUDLU-1 cells); also called TMPRSS4 WT; HEK293T-TMPRSS4
Test: flow cytometry, monoclonal phage on HEK293T-TMPRSS4 cells;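 also: bound phage detected with a PE-labelled mouse anti-M13 monoclonal antibody, read by flow cytometry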
Procedure: Monoclonal phages were prepared, screened for binding to HEK293T-TMPRSS4 cells by flow cytometry. Monoclonal phage clones were incubated with HEK293T-TMPRSS4 cells, the cells were washed and then incubated with a PE conjugated mouse anti-M13 mAb, and washed again before being analyzed by flow cytometry. The positive candidates were selected based on cytometry results, then followed by next-gen sequencing of the positive hits.

T1 sequence (Q9NRS4 whole entry): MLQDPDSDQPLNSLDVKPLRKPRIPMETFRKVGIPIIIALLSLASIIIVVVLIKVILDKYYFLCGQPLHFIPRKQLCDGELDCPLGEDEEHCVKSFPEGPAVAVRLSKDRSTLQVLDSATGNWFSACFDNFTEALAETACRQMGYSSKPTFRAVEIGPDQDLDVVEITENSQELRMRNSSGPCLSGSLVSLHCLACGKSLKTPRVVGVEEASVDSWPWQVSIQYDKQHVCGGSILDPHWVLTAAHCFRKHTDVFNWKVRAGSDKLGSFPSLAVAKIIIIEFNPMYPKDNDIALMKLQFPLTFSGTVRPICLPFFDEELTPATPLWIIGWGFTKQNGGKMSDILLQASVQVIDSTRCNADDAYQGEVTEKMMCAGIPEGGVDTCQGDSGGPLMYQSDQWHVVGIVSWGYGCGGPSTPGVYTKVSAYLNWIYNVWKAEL

Row | Binder | binding result
1 | B1 | binds
2 | B2 | binds
3 | B3 | binds
4 | B4 | binds
5 | B5 | binds
6 | B6 | binds
7 | B7 | binds
8 | B8 | binds
9 | B9 | binds
10 | B10 | binds
11 | B11 | binds
12 | B12 | binds
13 | B13 | binds
14 | B14 | binds
15 | B15 | binds
16 | B16 | binds
17 | B17 | binds
18 | B18 | binds
19 | B19 | binds
20 | B20 | binds
